Laboratory results taken from patent US20190169289A1 (Scripps Research, published 2019).
Like-named read-outs stand apart in the source and are kept apart here. Ends that are not written are not given here.

What was measured:
[1] = target: T1, anti-GCN4 (52SR4 scFv) sCAR with CD8 hinge; assay: flow cytometry on sCAR-T cells
T1 construct: 273 is the protein without leader; also called sCAR (long); CD8 sCAR

anti-Her2-FLAG switch = assay: ELISA, absorbance at 375nm, of anti-FLAG antibody 5B3 on the anti-Her2-FLAG switch; the text gives the same value as an apparent affinity of 2.2×10^-10 M
[2] = target: T1, anti-GCN4 (52SR4 scFv) sCAR with CD8 …; assay: flow cytometry on CD8 sCAR-T cells, switch 30 min at 4 C, detected with PE-conjugated goat anti-human kappa chain antibody, MFI
Text: Cells were washed two times and analyzed using the Accuri flow cytometer (BD).

CD22 [3] = target: T2, CD22 (UniProt P20273 20-847, limits assumed); assay: cell-based or functional assay
CD22 [4] = target: T2, CD22; assay: cell-based or functional assay; remark: listed apart in the source
CD22 [5] = target: T2, CD22; assay: cell-based or functional assay; remark: listed apart in the source
CD22 [6] = target: T2, CD22; assay: cell-based or functional assay; remark: listed apart in the source
CD22 [7] = target: T2, CD22; assay: cell-based or functional assay; remark: listed apart in the source
CD22 [8] = target: T2, CD22; assay: cell-based or functional assay; remark: listed apart in the source
[9] = target: T3, anti-GCN4 (52SR4 scFv) sCAR with IgG4m hinge; assay: flow cytometry competition on CAR-T cells with the GCN4 CAR (SEQ ID NO. 74): 1 nM labelled GCN4 peptide (GCN4-AF488) as competitor, unlabelled peptide titrated, MFI of the labelled peptide read
T3 construct: disulfide dimer by western blot; also called short-dimeric sCAR; IgG4m sCAR
T3 chain: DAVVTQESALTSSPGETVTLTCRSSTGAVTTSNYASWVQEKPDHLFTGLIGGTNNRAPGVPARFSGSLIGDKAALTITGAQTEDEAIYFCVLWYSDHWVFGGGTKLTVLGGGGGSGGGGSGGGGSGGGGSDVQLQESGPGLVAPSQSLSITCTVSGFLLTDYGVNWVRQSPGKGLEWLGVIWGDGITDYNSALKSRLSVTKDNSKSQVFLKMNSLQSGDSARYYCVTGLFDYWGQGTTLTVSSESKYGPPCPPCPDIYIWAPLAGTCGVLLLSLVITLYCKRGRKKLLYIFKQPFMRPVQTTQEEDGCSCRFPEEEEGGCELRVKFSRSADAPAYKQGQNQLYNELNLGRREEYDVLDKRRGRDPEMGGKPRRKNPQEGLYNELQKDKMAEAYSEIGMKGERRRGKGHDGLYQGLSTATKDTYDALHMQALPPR
Text: Un-labelled peptide binding efficiency was indirectly shown by measuring the mean fluorescence intensity (MFI) staining with the labelled peptide.
Cells were then washed twice with cold PBS to remove the free labelled peptide before being analyzed using the BD Accuri flow cytometer.

[10] = target: T1, anti-GCN4 (52SR4 scFv) sCAR with CD8 …; assay: flow cytometry of CD8 sCAR T cells stained with AF488-conjugated PNE; filled histogram against a dashed control histogram

B1: anti-CD19 (FMC63) IgG LCC1 switch (antibody)
light: DIQMTQTTSSLSASLGDRVTISCRASQDISKYLNWYQQKPDGTVKLLIYHTSRLHSGVPSRFSGSGSGTDYSLTISNLEQEDIATYFCQQGNTLPYTFGGGTKLEIKRTVAAPSVFIFPPSDEQLKSGTASVVCLLNNFYPREAKVQWKVDNALQSGNSQESVTEQDSGGGGSNYHLENEVARLKKLGGGGSDSTYSLSSTLTLSKADYEKHKVYACEVTHQGLSSPVTKSFNRGEC
heavy: EVKLQESGPGLVAPSQSLSVTCTVSGVSLPDYGVSWIRQPPRKGLEWLGVIWGSETTYYNSALKSRLTIIKDNSKSQVFLKMNSLQTDDTAIYYCAKHYYYGGSYAMDYWGQGTSVTVSSASTKGPSVFPLAPSSKSTSGGTAALGCLVKDYFPEPVTVSWNSGALTSGVHTFPAVLQSSGLYSLSSVVTVPSSSLGTQTYICNVNHKPSNTKVDKKVEPKSCDKTHTCPPCPAPPVAGPSVFLFPPKPKDTLMISRTPEVTCVVVDVSHEDPEVKFNWYVDGVEVHNAKTKPREEQYNSTYRVVSVLTVLHQDWLNGKEYKCKVSNKGLPSSIEKTISKAKGQPREPQVYTLPPSRDELTKNQVSLTCLVKGFYPSDIAVEWESNGQPENNYKTTPPVLDSDGSFFLYSKLTVDKSRWQQGNVFSCSVMHEALHNHYTQKSLSLSPGK
notes: also called LCC1 IgG; IgG (FcNull) switch
**Q.** Does B1 bind [1]?
**A.** Result: binds

B2: anti-FLAG monoclonal antibody (clone: 5B3) (antibody, V domains shown)
VH: EVQLQQSGAELVKPGASVKLSCTASGFNIKDYYMHWVKQRTEQGLEWIGRIDPEDGETKYAPKFQGKATITADTSSKTAYLQLSSLTSEDTAVYYCARLKGGYWGQGTTLTVSS
VL: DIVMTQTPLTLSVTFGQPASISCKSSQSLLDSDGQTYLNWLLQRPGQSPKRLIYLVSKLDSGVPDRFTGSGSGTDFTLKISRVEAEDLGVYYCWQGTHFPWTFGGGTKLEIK
notes: Mouse hybridoma antibody
**Q.** For B2, which EC50 (anti-Her2-FLAG switch) is on record?
**A.** The EC50 was 0.22 nM.

B3: anti-CD19 (FMC63) Fab LCNT switch (Fab, V domains shown)
VH: EVKLQESGPGLVAPSQSLSVTCTVSGVSLPDYGVSWIRQPPRKGLEWLGVIWGSETTYYNSALKSRLTIIKDNSKSQVFLKMNSLQTDDTAIYYCAKHYYYGGSYAMDYWGQGTSVTVSS
VL: DIQMTQTTSSLSASLGDRVTISCRASQDISKYLNWYQQKPDGTVKLLIYHTSRLHSGVPSRFSGSGSGTDYSLTISNLEQEDIATYFCQQGNTLPYTFGGGTKLEIKR
notes: also called LCNT Fab
**Q.** B3 was tested. Which “EC50 (read off the curve)” value [2] did it give?
**A.** Its value is ~2 nM.

B4: anti-CD22 (clone hLL2) Fab CTBV switch (Fab)
light: DIQLTQSPSSLSASVGDRVTMSCKSSQSVLYSANHKNYLAWYQQKPGKAPKLLIYWASTRESGVPSRFSGSGSGTDFTFTISSLQPEDIATYYCHQYLSSWTFGGGTKLEIKRTVAAPSVFIFPPSDEQLKSGTASVVCLLNNFYPREAKVQWKVDNALQSGNSQESVTEQDSKDSTYSLSSTLTLSKADYEKHKVYACEVTHQGLSSPVTKSFNRGECGGGGSNYHLENEVARLKKL
heavy: QVQLVQSGAEVKKPGSSVKVSCKASGYTFTSYWLHWVRQAPGQGLEWIGYINPRNDYTEYNQNFKDKATITADESTNTAYMELSSLRSEDTAFYFCARRDITTFYWGQGTTVTVSSARTKGPSVFPLAPSSKSTSGGTAALGCLVKDYFPEPVTVSWNSGALTSGVHTFPAVLQSSGLYSLSSVVTVPSSSLGTQTYICNVNHKPSNTKVDKKVEPKSCGGGGSNYHLENEVARLKKL
**Q.** With B4 as the binder, how does the “cytotoxicity at 0.06 pM” value (CD22 [3]) read?
**A.** Its value is -3.84.

**Q.** And the “cytotoxicity at 0.30 pM” value (CD22 [3])?
**A.** Its value is -0.28.

**Q.** And the “cytotoxicity at 1.52 pM” value (CD22 [3])?
**A.** The value was -4.59.

**Q.** What about the “cytotoxicity at 7.62 pM” value (CD22 [3]) of the same binder?
**A.** The value was 0.02.

**Q.** What about the “cytotoxicity at 38.10 pM” value (CD22 [3]) of the same binder?
**A.** Its value is 6.77.

**Q.** And the “cytotoxicity at 952.40 pM” value (CD22 [3])?
**A.** The value was 21.7.

**Q.** And the “cytotoxicity at 4762.00 pM” value (CD22 [3])?
**A.** Its value is 24.3.

**Q.** And the EC50 of cytotoxicity (CD22 [4])?
**A.** The EC50 of cytotoxicity was 0.0555 nM.

**Q.** What about the EC50 of cytotoxicity (CD22 [5]) of the same binder?
**A.** Its EC50 of cytotoxicity is 0.0288 nM.

**Q.** What about the “cytotoxicity at 0.01 pM” value (CD22 [6]) of the same binder?
**A.** Its value is 4.6.

**Q.** What about the “cytotoxicity at 0.1 pM” value (CD22 [6]) of the same binder?
**A.** Its value is 3.6.

**Q.** What about the “cytotoxicity at 10 pM” value (CD22 [6]) of the same binder?
**A.** The value was 10.4.

**Q.** And the “cytotoxicity at 100 pM” value (CD22 [6])?
**A.** The value was 42.2.

**Q.** What about the “cytotoxicity at 1000 pM” value (CD22 [6]) of the same binder?
**A.** The value was 47.4.

**Q.** What about the “cytotoxicity at 10000 pM” value (CD22 [6]) of the same binder?
**A.** The value was 44.9.

**Q.** And the “cytotoxicity at 0.01 pM” value (CD22 [7])?
**A.** The value was 1.34.

**Q.** And the “cytotoxicity at 0.1 pM” value (CD22 [7])?
**A.** Its value is 0.18.

**Q.** What about the “cytotoxicity at 1 pM” value (CD22 [7]) of the same binder?
**A.** Its value is 1.38.

**Q.** And the “cytotoxicity at 10 pM” value (CD22 [7])?
**A.** The value was 4.1.

**Q.** And the “cytotoxicity at 100 pM” value (CD22 [7])?
**A.** The value was 28.2.

**Q.** What about the “cytotoxicity at 1000 pM” value (CD22 [7]) of the same binder?
**A.** Its value is 46.9.

**Q.** What about the “cytotoxicity at 10000 pM” value (CD22 [7]) of the same binder?
**A.** Its value is 44.2.

**Q.** And the EC50 of cytotoxicity (CD22 [8])?
**A.** Its EC50 of cytotoxicity is 0.0691 nM.

B5: yeast transcription factor GCN4 minimal binding peptide NYHLENEVARLKKL (peptide)
peptide: NYHLENEVARLKKL
modifications: not fully specified
notes: also called PNE
**Q.** Does B5 bind [9]?
**A.** Result: binds

**Q.** Does B5 bind [10]?
**A.** Result: binds
